Assay results taken from the supplement of paper PMC10065799, “High-throughput profiling of sequence recognition by tyrosine kinases and SH2 domains using bacterial peptide display” (eLife, 2023).

Experiments:
[1] = tested on: c-Src; assay: phosphorylation enrichment, bacterial display (enrichment ratio); higher = better substrate or ligand; peptides without Tyr show the background
[2] = tested on: c-Abl (mouse); assay: as above
[3] = target: Hck (UniProt P08631); assay: as above
[4] = target: MERTK (UniProt Q12866); assay: as above
[5] = tested on: AncSZ; assay: as above
[6] = target: EPHB2 (UniProt P29323); assay: as above
[7] = target: Fyn (UniProt P06241); assay: as above
[8] = target: Fes (UniProt P07332); assay: as above
[9] = target: Jak2 (UniProt O60674); assay: as above
[10] = target: FGFR1 (UniProt P11362); assay: as above
[11] = target: FGFR3 (UniProt P22607); assay: as above
[12] = target: EPHB1 (UniProt P54762); assay: as above
[13] = tested on: Fer (mouse); assay: as above
[14] = target: SHP2-C SH2; assay: SH2 binding enrichment of the phosphorylated peptide, bacterial display (enrichment ratio); higher = better substrate or ligand; peptides without Tyr show the background
[15] = target: c-Src SH2; assay: as above
[16] = target: Grb2 SH2 (UniProt P62993); assay: as above
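Wherever SH2 binding enrichment of the phosphorylated peptide, bacterial display is given: peptide library displayed on the E. coli surface as eCPX fusions, selected cells deep-sequenced, score is each peptide's frequency after selection divided by its frequency in the input.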
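Wherever phosphorylation enrichment, bacterial display is given: 11-residue human phosphosite peptides and single-mutation variants displayed on the E. coli surface, counted by deep sequencing, each peptide's frequency after selection divided by its frequency in the unselected input library; frequency after pTyr selection over input frequency; kinase dosed for 20-30% of maximal phosphorylation in three min.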

Chain of Fyn (P06241 whole entry, looked up): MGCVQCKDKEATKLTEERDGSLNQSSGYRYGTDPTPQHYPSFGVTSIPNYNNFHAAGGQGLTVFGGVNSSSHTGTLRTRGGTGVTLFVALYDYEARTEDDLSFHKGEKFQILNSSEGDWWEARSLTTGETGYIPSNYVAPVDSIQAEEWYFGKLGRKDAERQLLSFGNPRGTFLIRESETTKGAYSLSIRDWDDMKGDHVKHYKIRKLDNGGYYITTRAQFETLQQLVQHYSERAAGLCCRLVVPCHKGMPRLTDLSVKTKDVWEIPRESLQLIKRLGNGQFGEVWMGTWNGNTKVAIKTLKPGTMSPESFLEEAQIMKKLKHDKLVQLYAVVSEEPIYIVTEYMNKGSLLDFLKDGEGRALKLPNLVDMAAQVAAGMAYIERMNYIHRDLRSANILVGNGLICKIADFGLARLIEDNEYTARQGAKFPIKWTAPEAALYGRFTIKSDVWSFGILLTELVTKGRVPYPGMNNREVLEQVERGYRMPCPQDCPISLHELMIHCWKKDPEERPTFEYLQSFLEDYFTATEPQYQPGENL
Chain of FGFR1 (P11362 whole entry, looked up): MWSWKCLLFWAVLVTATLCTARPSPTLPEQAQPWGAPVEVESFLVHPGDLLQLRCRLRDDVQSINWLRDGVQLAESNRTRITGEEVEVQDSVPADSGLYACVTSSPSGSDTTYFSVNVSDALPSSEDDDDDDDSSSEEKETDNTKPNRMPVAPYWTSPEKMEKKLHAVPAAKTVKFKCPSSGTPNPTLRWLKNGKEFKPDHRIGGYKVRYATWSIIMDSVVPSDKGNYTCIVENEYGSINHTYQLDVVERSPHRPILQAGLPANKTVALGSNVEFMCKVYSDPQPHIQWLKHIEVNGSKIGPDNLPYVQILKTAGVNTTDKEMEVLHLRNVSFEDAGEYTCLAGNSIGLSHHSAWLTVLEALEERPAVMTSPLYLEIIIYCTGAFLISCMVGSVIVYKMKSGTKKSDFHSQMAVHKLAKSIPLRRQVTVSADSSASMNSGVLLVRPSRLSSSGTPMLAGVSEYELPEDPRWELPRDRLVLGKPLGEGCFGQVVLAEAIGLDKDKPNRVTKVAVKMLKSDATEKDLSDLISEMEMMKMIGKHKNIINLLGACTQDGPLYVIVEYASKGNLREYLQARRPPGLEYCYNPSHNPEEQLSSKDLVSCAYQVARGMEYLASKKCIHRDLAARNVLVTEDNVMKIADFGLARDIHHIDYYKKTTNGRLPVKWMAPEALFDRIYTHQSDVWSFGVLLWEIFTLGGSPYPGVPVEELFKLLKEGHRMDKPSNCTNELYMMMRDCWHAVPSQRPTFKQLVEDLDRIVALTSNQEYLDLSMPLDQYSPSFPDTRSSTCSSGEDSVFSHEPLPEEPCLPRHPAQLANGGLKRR
Chain of Jak2 (O60674 whole entry, looked up): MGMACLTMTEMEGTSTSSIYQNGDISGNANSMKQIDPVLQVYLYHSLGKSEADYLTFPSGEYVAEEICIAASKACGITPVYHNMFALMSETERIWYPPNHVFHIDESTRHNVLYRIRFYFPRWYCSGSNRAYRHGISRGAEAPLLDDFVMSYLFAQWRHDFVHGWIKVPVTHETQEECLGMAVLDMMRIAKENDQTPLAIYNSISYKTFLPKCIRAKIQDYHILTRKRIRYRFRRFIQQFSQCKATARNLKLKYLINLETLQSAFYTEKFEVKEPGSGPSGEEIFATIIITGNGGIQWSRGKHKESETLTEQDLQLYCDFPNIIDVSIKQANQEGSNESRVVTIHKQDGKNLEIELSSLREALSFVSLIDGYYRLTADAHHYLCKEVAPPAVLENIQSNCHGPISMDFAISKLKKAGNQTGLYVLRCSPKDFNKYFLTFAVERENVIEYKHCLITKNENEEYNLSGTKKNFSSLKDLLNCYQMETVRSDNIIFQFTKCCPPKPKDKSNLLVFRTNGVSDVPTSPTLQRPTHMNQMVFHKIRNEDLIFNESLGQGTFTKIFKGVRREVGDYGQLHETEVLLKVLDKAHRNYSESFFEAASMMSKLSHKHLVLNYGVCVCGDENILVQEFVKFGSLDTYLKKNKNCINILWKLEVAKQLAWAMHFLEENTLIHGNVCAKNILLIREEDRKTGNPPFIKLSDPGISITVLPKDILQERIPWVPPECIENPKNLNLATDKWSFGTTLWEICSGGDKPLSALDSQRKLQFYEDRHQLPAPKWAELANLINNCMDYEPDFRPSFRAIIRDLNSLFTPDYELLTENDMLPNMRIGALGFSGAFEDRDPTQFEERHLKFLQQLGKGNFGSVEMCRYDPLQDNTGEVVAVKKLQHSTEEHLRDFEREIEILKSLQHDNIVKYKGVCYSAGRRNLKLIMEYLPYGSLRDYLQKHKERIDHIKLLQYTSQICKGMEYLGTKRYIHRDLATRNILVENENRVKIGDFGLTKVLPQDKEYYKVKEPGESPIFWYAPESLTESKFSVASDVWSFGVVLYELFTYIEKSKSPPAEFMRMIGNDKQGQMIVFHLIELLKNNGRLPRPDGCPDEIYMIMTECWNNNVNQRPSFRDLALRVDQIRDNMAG
Chain of Hck (P08631 whole entry, looked up): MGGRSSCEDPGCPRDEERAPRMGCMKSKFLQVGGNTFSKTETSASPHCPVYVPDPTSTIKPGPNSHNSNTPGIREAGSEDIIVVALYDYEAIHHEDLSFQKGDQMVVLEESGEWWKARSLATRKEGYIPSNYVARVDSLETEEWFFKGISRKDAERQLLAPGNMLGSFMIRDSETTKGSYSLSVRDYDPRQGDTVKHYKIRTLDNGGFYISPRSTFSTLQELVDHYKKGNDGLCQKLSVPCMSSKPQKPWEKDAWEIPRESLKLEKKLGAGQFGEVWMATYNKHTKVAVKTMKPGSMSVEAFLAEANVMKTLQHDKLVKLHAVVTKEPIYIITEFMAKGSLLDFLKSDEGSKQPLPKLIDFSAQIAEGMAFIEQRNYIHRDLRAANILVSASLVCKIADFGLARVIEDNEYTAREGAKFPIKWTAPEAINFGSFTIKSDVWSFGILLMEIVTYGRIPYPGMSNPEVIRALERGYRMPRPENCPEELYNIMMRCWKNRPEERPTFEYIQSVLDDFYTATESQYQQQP
Chain of MERTK (Q12866 whole entry, looked up): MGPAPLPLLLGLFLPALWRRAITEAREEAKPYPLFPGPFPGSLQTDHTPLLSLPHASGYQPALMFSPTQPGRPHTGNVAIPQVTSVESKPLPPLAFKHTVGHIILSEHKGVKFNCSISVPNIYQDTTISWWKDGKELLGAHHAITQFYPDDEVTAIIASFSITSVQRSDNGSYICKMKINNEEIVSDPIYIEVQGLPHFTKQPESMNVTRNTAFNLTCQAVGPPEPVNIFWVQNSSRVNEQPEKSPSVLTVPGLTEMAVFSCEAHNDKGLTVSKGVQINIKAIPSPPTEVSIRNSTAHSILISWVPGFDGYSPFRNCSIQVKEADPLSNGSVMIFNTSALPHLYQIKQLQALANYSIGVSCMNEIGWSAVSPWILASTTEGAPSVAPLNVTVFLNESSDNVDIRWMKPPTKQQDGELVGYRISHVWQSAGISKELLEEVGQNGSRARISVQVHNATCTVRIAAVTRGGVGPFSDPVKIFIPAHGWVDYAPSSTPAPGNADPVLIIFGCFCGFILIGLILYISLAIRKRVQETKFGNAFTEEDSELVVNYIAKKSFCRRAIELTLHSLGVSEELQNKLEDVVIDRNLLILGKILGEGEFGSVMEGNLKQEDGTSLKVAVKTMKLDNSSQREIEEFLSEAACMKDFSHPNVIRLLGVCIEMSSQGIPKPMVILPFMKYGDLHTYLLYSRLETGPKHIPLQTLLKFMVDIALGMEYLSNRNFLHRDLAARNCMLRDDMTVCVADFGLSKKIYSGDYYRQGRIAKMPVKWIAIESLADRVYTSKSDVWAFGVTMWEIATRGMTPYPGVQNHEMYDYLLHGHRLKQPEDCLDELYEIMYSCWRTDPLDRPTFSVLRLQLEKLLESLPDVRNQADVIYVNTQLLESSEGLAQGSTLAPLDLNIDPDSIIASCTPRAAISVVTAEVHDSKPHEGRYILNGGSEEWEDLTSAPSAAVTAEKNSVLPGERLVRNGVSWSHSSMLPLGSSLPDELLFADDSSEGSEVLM
Chain of EPHB1 (P54762 whole entry, looked up): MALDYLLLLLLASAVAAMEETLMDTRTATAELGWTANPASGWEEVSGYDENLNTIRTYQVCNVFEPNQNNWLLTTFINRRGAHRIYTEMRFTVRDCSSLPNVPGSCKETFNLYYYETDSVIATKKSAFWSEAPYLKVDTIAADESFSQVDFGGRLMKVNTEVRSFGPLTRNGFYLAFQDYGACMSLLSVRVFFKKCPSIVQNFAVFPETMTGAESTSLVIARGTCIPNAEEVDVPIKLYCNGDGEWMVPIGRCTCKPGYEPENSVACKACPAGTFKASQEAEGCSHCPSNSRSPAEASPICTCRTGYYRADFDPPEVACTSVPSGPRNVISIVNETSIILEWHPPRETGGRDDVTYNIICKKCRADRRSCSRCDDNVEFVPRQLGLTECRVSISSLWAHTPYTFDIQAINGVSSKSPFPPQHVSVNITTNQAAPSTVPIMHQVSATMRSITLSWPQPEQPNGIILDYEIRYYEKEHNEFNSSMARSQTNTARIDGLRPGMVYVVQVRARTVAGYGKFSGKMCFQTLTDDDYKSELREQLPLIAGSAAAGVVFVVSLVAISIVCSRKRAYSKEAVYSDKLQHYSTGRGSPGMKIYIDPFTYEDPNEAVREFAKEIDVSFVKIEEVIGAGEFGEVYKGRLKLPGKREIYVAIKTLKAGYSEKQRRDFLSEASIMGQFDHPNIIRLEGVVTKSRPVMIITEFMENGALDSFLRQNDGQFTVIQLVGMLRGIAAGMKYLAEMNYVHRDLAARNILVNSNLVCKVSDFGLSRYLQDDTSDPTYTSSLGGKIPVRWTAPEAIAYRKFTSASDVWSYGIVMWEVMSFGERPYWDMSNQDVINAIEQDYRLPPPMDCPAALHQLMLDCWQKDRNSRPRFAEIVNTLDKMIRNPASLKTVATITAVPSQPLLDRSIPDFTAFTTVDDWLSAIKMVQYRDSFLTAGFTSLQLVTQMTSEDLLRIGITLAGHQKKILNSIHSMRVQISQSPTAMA

| SH2 binding enrichment [14] | SH2 binding enrichment [15] | SH2 binding enrichment [16] | Sequence | phosphorylation enrichment [1] | phosphorylation enrichment [2] | phosphorylation enrichment [3] | phosphorylation enrichment [4] | phosphorylation enrichment [5] | phosphorylation enrichment [6] | phosphorylation enrichment [7] | phosphorylation enrichment [8] | phosphorylation enrichment [9] | phosphorylation enrichment [10] | phosphorylation enrichment [11] | phosphorylation enrichment [12] | phosphorylation enrichment [13] |
| --- | --- | --- | --- | --- | --- | --- | --- | --- | --- | --- | --- | --- | --- | --- | --- | --- |
| 1.09 | 0.844 | 1.15 | AGREIYESEKC [TTN_Y4424_D4427E] | 0.59 | 0.708 | 0.495 | 0.547 | 0.856 | 0.585 | 0.525 | 0.925 | 0.846 | 0.535 | 0.638 | 0.427 | 0.47 |
| 0.645 | 0.466 | 0.794 | AIYWRYSKFFD [SH3PXD2B_Y45_R43W] | 0.97 | 1.1 | 0.886 | 0.421 | 1.3 | 0.681 | 1.49 | 1.05 | 1.07 | 0.57 | 0.804 | 0.982 | 0.526 |

The next lines start with the sequence.

| Sequence | SH2 binding enrichment [14] | SH2 binding enrichment [15] | SH2 binding enrichment [16] | phosphorylation enrichment [1] | phosphorylation enrichment [2] | phosphorylation enrichment [3] | phosphorylation enrichment [4] | phosphorylation enrichment [5] | phosphorylation enrichment [6] | phosphorylation enrichment [7] | phosphorylation enrichment [8] | phosphorylation enrichment [9] | phosphorylation enrichment [10] | phosphorylation enrichment [11] | phosphorylation enrichment [12] | phosphorylation enrichment [13] |
| --- | --- | --- | --- | --- | --- | --- | --- | --- | --- | --- | --- | --- | --- | --- | --- | --- |
| AFGEVYEGQVS [ALK_Y1131] | 0.456 | 0.499 | 0.914 | 1.54 | 0.764 | 0.937 | 0.442 | 0.974 | 0.64 | 0.772 | 1.11 | 0.846 | 0.695 | 0.667 | 0.539 | 0.459 |
| AFLLLCFNDTH [BMP15_Y235_Y235C] | 1 | 0.704 | 1.01 | 0.413 | 1.01 | 0.561 | 0.484 | 1.42 | 0.696 | 0.563 | 1.44 | 1.63 | 0.501 | 0.918 | 0.724 | 0.663 |
| AGARMYGVLPW [PLP1_Y207_D203G] | 0.549 | 0.513 | 0.782 | 3.6 | 0.667 | 5.5 | 0.842 | 0.67 | 0.724 | 4.8 | 0.75 | 0.55 | 0.489 | 0.495 | 0.542 | 0.447 |
| AGRTGYDNREI [BCL2_Y9] | 0.718 | 0.504 | 0.779 | 0.537 | 0.974 | 0.367 | 0.429 | 0.779 | 0.394 | 0.427 | 0.955 | 0.848 | 0.461 | 0.509 | 0.392 | 0.5 |
| AGTILYHAHLG [ASS1_Y291_D296G] | 0.543 | 0.483 | 0.737 | 0.549 | 0.727 | 0.61 | 0.863 | 0.819 | 0.633 | 0.564 | 1.07 | 0.816 | 0.517 | 0.625 | 0.534 | 0.495 |
| AHLLQYNHQVK [LGALS3_Y221_R224Q] | 0.401 | 0.503 | 0.631 | 0.459 | 0.474 | 0.508 | 0.521 | 0.706 | 0.505 | 0.706 | 0.9 | 0.517 | 0.579 | 0.545 | 0.503 | 0.583 |
